Patent US11807873B2, “Conversion of S-lignin compounds to useful intermediates” (Alliance for Sustainable Energy, LLC, priority 2020, dated 2023)

Legend:
Experiment in all cases: purified protein, by the assay type
Details in all cases: other: 2 μM Ht-VanB, 400 μM NADH, air-saturated HEPES (I = 0.1M), pH 7.5, 25° C, VanA 0.4 μM for vanillate, 1 μM for syringate and 3MGA
[1] = substrate: COc1cc(C(=O)O)cc(O)c1O
Description: (§1) In evaluating the parameters for VA, 0.4 μM VanA was used to ensure steady-state conditions at low concentrations of VA.
(§2) Steady-state kinetic analyses: Kinetic assays were performed by monitoring the consumption of O2 using a Clark-type polarographic O2 electrode OXYG1 (Hansatech) connected to a circulating water bath. Assays with the exception of GalA were performed in 1 mL of air-saturated 40 mM HEPES, 80 mM NaCl (I=0.1 M, pH 7.5) at 25° C. GalA assays were performed in 40 mM MOPS, 80 mM NaCl (I=0.1 M, pH 7.0) at 30° C. The electrode was calibrated daily according to the manufacturer's instructions using air-saturated buffer and water depleted of 02 via addition of sodium hydrosulfite. Stock solutions were prepared fresh daily. The background rate of O2-consumption was recorded prior to initiating the reaction and was subtracted from the measured reaction rate. Steady-state kinetic parameters were evaluated by fitting the Michaelis-Menten equation to the data using the least-squares fitting of LEONORA.
(§3) For VanAB, the standard reaction contained 1 μM VanA, 2 μM Ht-VanB, and 400 μM NADH. […] Stock solutions of the substrates were made in dimethylsulfoxide (DMSO). The final concentration of DMSO in the assay solutions was <1% (v/v). For PcaHG, the standard reaction contained 250 μM PCA. The reaction was initiated by adding 0.1 μM PcaHG. […] The reaction was initiated by adding 0.05 μM GalA.

[2] = substrate: COc1cc(C(=O)O)cc(OC)c1O
[3] = substrate: COc1cc(C(=O)O)ccc1O
Description: as §1, §2, §3

B1: VanAB (vanillate O-demethylase) (Pseudomonas putida KT2440) (protein)
chain: MYPKNTWYVACTPDEIATKPLGRQICGEKIVFYRARENQVAAVEDFCPHRGAPLSLGYVEDGNLVCGYHGLVMGCDGKTVSMPGQRVRGFPCNKTFAAVERYGFIWVWPGDQAQADPALIPHLEWAVSDEWAYGGGLFHIGCDYRLMIDNLMDLTHETYVHASSIGQKEIDEAPPVTTVTGDEVVTARHMENIMAPPFWRMALRGNGLADDVPVDRWQICRFTPPSHVLIEVGVAHAGKGGYHAEAQHKASSIVVDFITPESDTSIWYFWGMARNFAAHDQTLTDNIREGQGKIFSEDLEMLERQQQNLLAHPERNLLKLNIDAGGVQSRKVLERIIAQERAPQPQLIATSANPAGKLP
- Km [1]: 150 ± 20 µM
- kcat [1]: 0.53 ± 0.02 s⁻¹
- kcat/Km [1]: 0.36 ± 0.04 ×10^4 s^−1 · M^−1
- Km [2]: 16 ± 2 µM
- kcat [2]: 0.89 ± 0.03 s⁻¹
- kcat/Km [2]: 5.5 ± 0.6 ×10^4 s^−1 · M^−1
- Km [3]: 4 ± 1 µM
